According to the supplement of paper PMC12042874:
± gives the uncertainty stated by the source.

Experiment: amyloid nucleation score (Sup35N fusion, yeast selection) (log enrichment); library NNK2; higher = more nucleation; inactive = no reads after selection
Outline: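 Growth for 7 days at 30°C on medium lacking adenine and uracil followed a 24-hour induction with 100 μM copper sulfate of psi-negative yeast expressing peptides of 20 random codons fused to Sup35N. Input and output plasmid inserts were sequenced with Illumina, and sequences with under 100 input reads were excluded. Nucleation score is the DiMSum log enrichment of output over input reads, centred on the mode score of non-aggregating sequences.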

Substance	amyloid nucleation score
EGLRVEMCYGKNVSFMIGSY	5.727 ± 0.049
GASFMSRNIRTWMTMWCDLK	0.012 ± 0.23
HGTCISSGNKWARWTLS	0.355 ± 0.65
MGGNLCVPRTLYSAIWLLSR	-1.23 ± 0.44
RVQDRYILNSVRQHHGAGQR	-0.14 ± 1.1
FANRILCVVSGINRVTGL	0.192 ± 0.34
RDLLIGDDI	-0.983 ± 0.44
LCNNKAYNDKLSPEPLAISR	-0.578 ± 0.39
YKNVAFCFVRMFFEGHSINC	-1.45 ± 0.76
RFDWRFCVVNRPGGKWLVVR	0.824 ± 0.29
GVIRILWDECRTSDYFGCGT	0.047 ± 0.26
MVVLCHINLYEYGSFNPSST	6.31 ± 0.077
GCNIRTNVGRLCMSYPDSNR	0.636 ± 0.18
LLRAT	0.598 ± 0.23
FHNLASFVRKSRVYQHKRNA	-0.231 ± 0.63
TFATYTISNCLYVPRPVT	0.879 ± 0.19
IPGVLLTYVIISRAPGGIPD	-0.545 ± 0.64
VLSSHRFNEAKMN	-0.366 ± 0.41
AAWNRPHMERRFSYEGYYIV	-0.508 ± 0.63
TVWGQECYW	5.74 ± 0.077
SSMILLVYCPYVPWNRSRR	4.8 ± 0.041
SNGFREYCATICNGTGDRRG	0.651 ± 0.62
KSGLTQLLQILSSCLELGIW	0.38 ± 0.51
TLFSYEYVYKFMGPRFKGAG	-0.746 ± 0.54
NTYLSMEFLLTP	inactive

Substance	amyloid nucleation score
SMFLMSCTDGVFHNRNLHVI	-0.662 ± 0.44
TYIFLSRIGQFSKLQYVMRL	5.37 ± 0.056
ACSYANLLVTLLNSPEMPVE	0.306 ± 0.5
VSIVRYIFSPNWFVTIASIY	-1.51 ± 0.49
LSVCLHHHNIAWDRCSGR	-0.469 ± 0.37
CRIVKRVRAADRRMWIMCLG	-0.256 ± 0.37
VIYLHVYGCVNLVSVLVHSL	1.87 ± 0.12
WYMQGTLTAMGRGQTQYLSC	0.405 ± 0.64
FMYLPL	-0.596 ± 0.3
MNMSEMSAYHFLFSGGSKLR	-0.21 ± 0.44
LPGQGIWWHICIEG	1.24 ± 0.14
SGSYF	-0.504 ± 0.45
IFRFARSNTYFRGESME	4.08 ± 0.095
GWWNHGSSMGYFERVSSTFW	inactive
FRFWLIDAHLLWDFSYLDTR	3.28 ± 0.13
VNFRVGCLVSYMNVK	2.6 ± 0.13
PRLYTPILYCLLTRCKVYTT	3.41 ± 0.051
FILDGSPVYWAIWKGG	-1.46 ± 0.78
YVLGEHRIRCGEDYV	1.77 ± 0.31
KILNPERRSNGWVMMKFVVD	-0.599 ± 1
SFTCLLSFKQSCHSFMPCPC	1.03 ± 0.32
YVGLV	-0.23 ± 0.22
FGFCGFMVHVGLVRDFLFC	0.257 ± 0.56
FMNLTLGIYKDFITFMMYVS	1.83 ± 0.12
NYTGQTFVMTGLISFNPQIG	5.79 ± 0.074

Substance	amyloid nucleation score
VMIWVTA	0.637 ± 0.25
KIWHLSQYCAVFSLVFKGLN	2.41 ± 0.15
PCYFINFLRFSWNIQLYNVL	-0.668 ± 1.1
VMYKAFFRYFGR	1.71 ± 0.24
RSRVLILCDEGRNCVL	-0.533 ± 0.42
WNAALKYKAHVGIDVSRCVP	0.535 ± 0.33
ALYMDVRL	1.53 ± 0.19
YTMGLVSFCLQLGSASFDI	3.56 ± 0.12
WGVFWLPH	-0.807 ± 0.56
GTRYLRVSFNCAVRV	1.22 ± 0.69
LNSMTILLSN	0.54 ± 0.56
FLWYGISVI	0.02 ± 0.4
HDRIFSIKSWWCRSIWEVGV	-1.79 ± 0.78
GRDPGNDEIDKLALSWRLMG	0.657 ± 0.32
IQLDTESSLVKRRAWYG	0.34 ± 0.64
IIALLYIKMTSTLVTVRKSL	0.297 ± 0.5
KGRGEMSLLFYSILLVGFCL	inactive
SLQGVM	-1.04 ± 0.44
LSDFEIFTLTIHSHLYHN	1.66 ± 0.24
LIICSAPCCVTTWQQLRTMQ	4.15 ± 0.047
LTPLICADNLD	-0.526 ± 0.35
YRGSGLMNTSDFVSVLALVN	inactive
NMFLFLCVRVCGVAFDKGKV	2.28 ± 0.13
FQNGQDGYGESLV	-0.898 ± 1.1
LRKPSTIFEHDAKNSRV	-0.67 ± 0.79

Substance	amyloid nucleation score
LYNEMVRSLVGAICRSRQGY	-0.297 ± 1.1
YFVGWCIYEVNAYISVPVVF	inactive
SFNVYRASGVKVRQWAFHGG	0.076 ± 0.61
KSTVIMSDTFLR	-0.271 ± 1
LYCQFSYVRCKPGKRSDLGW	1.88 ± 0.23
YIWYFKMEVDYVLMMYAVAG	0.183 ± 1
EMSGY	inactive
SSYLGMENQRLMRKESGCCL	0.09 ± 0.41
RTVLGGWMANWASHNILVQC	0.316 ± 0.39
RYALNYTIPEPYWT	-0.576 ± 0.55
NTLVMRWCRGCQWKEQLASN	1.1 ± 0.41
VYIAAHTCIC	4.93 ± 0.079
VCNFSTLELVVEDGSKAYRG	-0.079 ± 0.3
NLYMPDS	0.395 ± 0.8
VSLNCKRRALMTWYVKGLFG	-0.073 ± 0.22
MHPVANSGNSEHMFSMLY	3.48 ± 0.09
FGLWQVPSGWNTADRA	0.743 ± 0.58
VGSVICMFMCWFA	4.75 ± 0.036
RVGDEFVGCRWVSRIANSHS	2.23 ± 0.14
PCHFVCDCTRMASTTVIHV	0.01 ± 0.45
AELSA	0.606 ± 0.8
DIRMLERTNLIPYNKQVMGM	0.163 ± 0.29
WVYLRVFAHKKRAALSWAYS	-0.077 ± 0.34
MAVLEMRDRWCDLLLTTSRV	0.155 ± 0.21
VDVLLFRDYLNYSNLITHKV	-1.21 ± 0.54

Substance	amyloid nucleation score
MSYGNAYNTPKCDKHSVIPY	0.738 ± 0.37
SYSYDRVRKDTELARRNRAV	0.436 ± 0.44
CHIGN	inactive
VTGNKEVMKIRCWVAHEESD	1.32 ± 0.37
WDNWDPVAAP	inactive
MWVPFASWLCK	-0.08 ± 0.5
AFTSLPLCYSVYGKIKFCPC	0.433 ± 0.62
LMSQCT	-0.926 ± 0.64
IYLTSIYRQFSMLLLGSRTE	inactive
FRKSFHIYIVELYMDDHPLM	inactive
VWLALEWVLGWSTMR	1.73 ± 0.19
ISIVYNSAMSIHHDFLILLC	5.32 ± 0.094
RVSQHGEVPSTCFSK	1.39 ± 0.38
CFNTTNEMRSTSSWLRYGSV	3.83 ± 0.054
TIWVATLDFPNSYMSSALFV	4.27 ± 0.093
EIYCCAYPLFCVWVVTGIRL	1.62 ± 0.13
YGAYVYINSFCKYNIIRSRS	6.034 ± 0.043
WRYITCHS	1.59 ± 0.55
ADWQYHSVYMNTVRDKCLAQ	-0.06 ± 0.28
VFDGRYVESILSFF	3.96 ± 0.1
QSPSIRTCTYYGTYRRLKKG	inactive
SRVIVTDFVNSNATA	0.218 ± 0.51
DGVNAFNR	0.203 ± 0.2
DQFWSENRIDYDNLAIRLQL	-1.1 ± 0.76
LGFAGSVGICDRKTLDRREC	4.91 ± 0.064

Substance	amyloid nucleation score
LHIRVLSQVRLCDDWRASAS	-0.016 ± 0.33
CISSMVALMGGPWNEMLGTW	0.767 ± 0.74
PSMIYFYRGSSLFASWGFLI	inactive
SREINITLGKTFYPSRMYGV	4.48 ± 0.05
YSLWLVVCYLLVCWNINCGT	0.366 ± 0.44
RNSLEFTDTRCNQPGQCESG	0.641 ± 0.4
DDDRPDEAYEYDVSGF	-1.03 ± 0.54
EGMSI	inactive
YVWIQTLYALWYFSLRFAGL	-0.413 ± 0.49
SADRECCQHEFGASPRLRVG	4.907 ± 0.041
IWGCKELLDVRTAQGVDGM	3.87 ± 0.078
YVSLNNRQKFLAARLPKLEG	-0.51 ± 0.64
KYNSCSYEGSRRILFSGACR	-0.699 ± 0.45
IKVAEGSLVCARYGRMVRLE	4.92 ± 0.053
SMLRY	0.171 ± 0.6
WTVRSARFWMSKQVVFSTTV	0.812 ± 0.5
NRDVFWRFLVTTVVYELSSK	inactive
VIHMVPMTEGGLPCTV	-0.139 ± 0.56
SAGHSKGLQDVAPPRIFMVS	inactive
LILGYFRKELFKNASFVLNF	4.05 ± 0.066
WVASSSKQRTHLCSGVKWSV	0.539 ± 0.56
LKVAVLVSGLGLA	0.54 ± 0.46
NSRLEVGSNSKQDLMAMSKT	-1.12 ± 0.74
NYVVE	4.73 ± 0.069
RLDRVIFY	1.85 ± 0.099

Substance	amyloid nucleation score
RSDSVYSIGCSNENRQSGRA	1.21 ± 0.2
RTIVCF	-0.699 ± 1
NDDTDQLSTSSIGRRMRMR	0.662 ± 0.81
LIADLQKFSYVSWAGCMTY	4.4 ± 0.085
RTCTFVCRGM	2.86 ± 0.1
YERMWCHLLVLRPNKQK	0.697 ± 0.81
PIKYIVFSVLSCRRCLGNSM	0.651 ± 0.48
LWFGTIHNNTVGSNIDFTFT	4.71 ± 0.092
SIFPRTCSNSACLWISSRKL	4.259 ± 0.042
RVQVQLLISVYFFLYLPHSI	-1.58 ± 0.41
VGLSPSSASTHLRN	1.07 ± 0.33
IMNKVAWWIFMRMLSRGFVT	-1.1 ± 0.54
RNHVAHH	2.17 ± 0.21
FVNQPKVRYLVSCYFMANLP	0.016 ± 0.54
CNFLFYPFWCWLSICYFRSM	4.55 ± 0.085
ETTNTQVNAIVRNFGQ	0.002 ± 0.55
TYVSKIWMKRCESDILRKVI	inactive
AWSVIEGFQHREAFVTYRGQ	3.7 ± 0.063
FIILI	-1.29 ± 0.54
KASTRQ	1.51 ± 0.34
SGFGCLFTMW	1.63 ± 0.27
